Source: the supplement of paper PMC10065799, “High-throughput profiling of sequence recognition by tyrosine kinases and SH2 domains using bacterial peptide display” (eLife, 2023)

What was measured:
SHP2-C SH2 = assay: SH2 binding enrichment of the phosphorylated peptide, bacterial display (enrichment ratio); higher = better substrate or ligand; peptides without Tyr show the background
c-Src SH2 = assay: as above
Grb2 SH2 = Grb2 SH2 (UniProt P62993); assay: as above
Fyn = Fyn (UniProt P06241); assay: phosphorylation enrichment, bacterial display (enrichment ratio); higher = better substrate or ligand; peptides without Tyr show the background
FGFR1 = FGFR1 (UniProt P11362); assay: as above
EPHB1 = EPHB1 (UniProt P54762); assay: as above
c-Src = assay: as above
Fer (mouse) = assay: as above
Hck = Hck (UniProt P08631); assay: as above
c-Abl (mouse) = assay: as above
Fes = Fes (UniProt P07332); assay: as above
EPHB2 = EPHB2 (UniProt P29323); assay: as above
AncSZ = assay: as above
Jak2 = Jak2 (UniProt O60674); assay: as above
MERTK = MERTK (UniProt Q12866); assay: as above
FGFR3 = FGFR3 (UniProt P22607); assay: as above
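Throughout, for SH2 binding enrichment of the phosphorylated peptide, bacterial display: peptide library displayed on the E. coli surface as eCPX fusions, selected cells deep-sequenced, score is each peptide's frequency after selection divided by its frequency in the input.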
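Throughout, for phosphorylation enrichment, bacterial display: 11-residue human phosphosite peptides and single-mutation variants displayed on the E. coli surface, counted by deep sequencing, each peptide's frequency after selection divided by its frequency in the unselected input library; frequency after pTyr selection over input frequency; kinase dosed for 20-30% of maximal phosphorylation in three min.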

Chain of Fes (P07332 whole entry, looked up): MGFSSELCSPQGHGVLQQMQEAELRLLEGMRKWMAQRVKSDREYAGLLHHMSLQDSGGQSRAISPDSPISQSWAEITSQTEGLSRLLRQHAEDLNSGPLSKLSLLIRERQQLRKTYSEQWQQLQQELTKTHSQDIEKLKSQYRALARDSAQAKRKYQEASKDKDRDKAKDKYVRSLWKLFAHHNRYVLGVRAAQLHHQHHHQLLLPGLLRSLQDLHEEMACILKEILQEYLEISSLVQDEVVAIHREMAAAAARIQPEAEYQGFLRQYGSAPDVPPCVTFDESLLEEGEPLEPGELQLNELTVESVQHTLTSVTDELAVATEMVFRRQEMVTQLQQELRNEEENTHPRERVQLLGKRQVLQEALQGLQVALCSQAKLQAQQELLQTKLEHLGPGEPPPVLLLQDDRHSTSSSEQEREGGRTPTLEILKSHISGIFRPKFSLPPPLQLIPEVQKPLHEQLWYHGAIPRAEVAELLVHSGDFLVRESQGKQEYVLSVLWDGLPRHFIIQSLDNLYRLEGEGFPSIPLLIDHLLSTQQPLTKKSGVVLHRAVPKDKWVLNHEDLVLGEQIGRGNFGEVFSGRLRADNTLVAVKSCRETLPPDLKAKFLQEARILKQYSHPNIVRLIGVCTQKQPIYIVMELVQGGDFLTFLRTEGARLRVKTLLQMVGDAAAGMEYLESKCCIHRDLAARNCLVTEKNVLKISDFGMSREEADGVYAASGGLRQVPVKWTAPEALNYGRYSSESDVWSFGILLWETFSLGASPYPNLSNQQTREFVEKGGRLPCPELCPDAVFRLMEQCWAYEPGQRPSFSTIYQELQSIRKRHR
Chain of EPHB2 (P29323 whole entry, looked up): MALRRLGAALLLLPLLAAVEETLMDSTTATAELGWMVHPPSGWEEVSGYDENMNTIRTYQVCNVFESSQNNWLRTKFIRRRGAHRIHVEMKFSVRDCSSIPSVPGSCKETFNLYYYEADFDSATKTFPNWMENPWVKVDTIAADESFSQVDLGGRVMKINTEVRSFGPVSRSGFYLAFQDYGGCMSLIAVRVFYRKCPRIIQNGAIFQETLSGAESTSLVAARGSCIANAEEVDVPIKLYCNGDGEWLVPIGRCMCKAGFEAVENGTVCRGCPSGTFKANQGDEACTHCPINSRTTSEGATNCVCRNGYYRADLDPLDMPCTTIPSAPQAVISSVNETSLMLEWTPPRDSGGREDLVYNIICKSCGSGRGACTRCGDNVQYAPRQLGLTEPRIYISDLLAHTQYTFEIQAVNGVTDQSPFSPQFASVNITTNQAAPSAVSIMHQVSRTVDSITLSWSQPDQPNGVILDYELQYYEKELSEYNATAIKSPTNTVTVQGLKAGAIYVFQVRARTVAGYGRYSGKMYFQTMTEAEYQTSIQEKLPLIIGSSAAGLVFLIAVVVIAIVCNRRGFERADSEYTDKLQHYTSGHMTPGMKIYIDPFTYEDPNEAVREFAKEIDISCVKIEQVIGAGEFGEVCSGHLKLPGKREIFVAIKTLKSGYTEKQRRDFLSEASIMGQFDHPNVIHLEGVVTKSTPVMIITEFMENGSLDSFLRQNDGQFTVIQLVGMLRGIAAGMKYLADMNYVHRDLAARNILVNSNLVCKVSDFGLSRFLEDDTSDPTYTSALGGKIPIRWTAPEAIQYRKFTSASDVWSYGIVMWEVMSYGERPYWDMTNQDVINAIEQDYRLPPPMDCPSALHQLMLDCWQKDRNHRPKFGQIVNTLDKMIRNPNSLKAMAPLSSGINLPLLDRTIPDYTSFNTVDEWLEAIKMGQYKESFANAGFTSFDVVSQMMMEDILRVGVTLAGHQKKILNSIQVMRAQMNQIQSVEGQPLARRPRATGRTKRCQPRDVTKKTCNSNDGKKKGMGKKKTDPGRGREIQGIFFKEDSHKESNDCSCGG
Chain of EPHB1 (P54762 whole entry, looked up): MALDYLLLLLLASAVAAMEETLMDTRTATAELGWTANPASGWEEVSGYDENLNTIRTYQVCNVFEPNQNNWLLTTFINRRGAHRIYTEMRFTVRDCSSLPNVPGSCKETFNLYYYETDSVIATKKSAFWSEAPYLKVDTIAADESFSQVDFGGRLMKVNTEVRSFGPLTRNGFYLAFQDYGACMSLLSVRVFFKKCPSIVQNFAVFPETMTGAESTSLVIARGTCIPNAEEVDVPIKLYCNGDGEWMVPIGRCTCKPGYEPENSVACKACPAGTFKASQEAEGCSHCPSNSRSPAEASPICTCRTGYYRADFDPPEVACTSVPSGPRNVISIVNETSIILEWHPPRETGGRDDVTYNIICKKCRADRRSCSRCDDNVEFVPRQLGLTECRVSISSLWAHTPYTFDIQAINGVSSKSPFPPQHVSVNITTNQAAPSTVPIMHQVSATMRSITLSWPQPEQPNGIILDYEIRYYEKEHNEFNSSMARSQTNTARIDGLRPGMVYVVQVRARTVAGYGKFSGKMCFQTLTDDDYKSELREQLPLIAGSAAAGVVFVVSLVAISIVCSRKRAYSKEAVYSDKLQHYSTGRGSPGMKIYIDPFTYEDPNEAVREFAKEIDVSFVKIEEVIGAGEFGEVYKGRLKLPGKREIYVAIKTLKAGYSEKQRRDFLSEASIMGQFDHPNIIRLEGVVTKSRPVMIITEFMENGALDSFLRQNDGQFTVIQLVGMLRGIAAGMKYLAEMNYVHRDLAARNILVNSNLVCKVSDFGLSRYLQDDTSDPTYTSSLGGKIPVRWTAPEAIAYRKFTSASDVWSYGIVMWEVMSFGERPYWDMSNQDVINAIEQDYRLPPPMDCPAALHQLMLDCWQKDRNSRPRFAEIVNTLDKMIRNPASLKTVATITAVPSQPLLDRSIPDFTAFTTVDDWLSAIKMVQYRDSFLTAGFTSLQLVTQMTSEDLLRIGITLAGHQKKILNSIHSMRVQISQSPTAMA
Chain of Jak2 (O60674 whole entry, looked up): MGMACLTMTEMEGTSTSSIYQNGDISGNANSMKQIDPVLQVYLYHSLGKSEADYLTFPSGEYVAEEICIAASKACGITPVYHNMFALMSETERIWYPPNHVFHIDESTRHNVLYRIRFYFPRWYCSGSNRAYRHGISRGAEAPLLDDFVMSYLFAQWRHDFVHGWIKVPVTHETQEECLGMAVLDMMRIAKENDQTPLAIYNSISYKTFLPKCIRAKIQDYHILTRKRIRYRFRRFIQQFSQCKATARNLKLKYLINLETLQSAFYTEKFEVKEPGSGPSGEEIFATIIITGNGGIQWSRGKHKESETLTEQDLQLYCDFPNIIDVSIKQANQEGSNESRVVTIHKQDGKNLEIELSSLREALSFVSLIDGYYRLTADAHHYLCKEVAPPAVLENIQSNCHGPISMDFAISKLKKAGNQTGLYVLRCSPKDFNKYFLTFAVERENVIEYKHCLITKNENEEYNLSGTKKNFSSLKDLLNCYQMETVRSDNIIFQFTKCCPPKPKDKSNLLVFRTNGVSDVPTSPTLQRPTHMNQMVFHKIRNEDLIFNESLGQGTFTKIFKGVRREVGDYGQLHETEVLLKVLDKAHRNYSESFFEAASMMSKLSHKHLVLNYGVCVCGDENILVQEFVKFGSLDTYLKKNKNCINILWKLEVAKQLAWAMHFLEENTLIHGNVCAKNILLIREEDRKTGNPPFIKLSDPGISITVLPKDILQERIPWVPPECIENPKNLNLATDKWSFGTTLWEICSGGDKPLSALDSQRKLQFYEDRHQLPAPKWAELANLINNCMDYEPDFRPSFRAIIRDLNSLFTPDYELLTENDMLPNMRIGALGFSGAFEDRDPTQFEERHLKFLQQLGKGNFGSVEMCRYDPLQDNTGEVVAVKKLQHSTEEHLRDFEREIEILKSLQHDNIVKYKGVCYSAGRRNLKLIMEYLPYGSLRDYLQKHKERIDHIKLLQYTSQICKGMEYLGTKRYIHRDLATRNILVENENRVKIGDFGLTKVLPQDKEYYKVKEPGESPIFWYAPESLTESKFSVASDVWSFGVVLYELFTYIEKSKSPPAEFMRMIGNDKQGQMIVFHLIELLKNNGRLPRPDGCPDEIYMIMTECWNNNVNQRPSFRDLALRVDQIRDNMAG
Chain of FGFR1 (P11362 whole entry, looked up): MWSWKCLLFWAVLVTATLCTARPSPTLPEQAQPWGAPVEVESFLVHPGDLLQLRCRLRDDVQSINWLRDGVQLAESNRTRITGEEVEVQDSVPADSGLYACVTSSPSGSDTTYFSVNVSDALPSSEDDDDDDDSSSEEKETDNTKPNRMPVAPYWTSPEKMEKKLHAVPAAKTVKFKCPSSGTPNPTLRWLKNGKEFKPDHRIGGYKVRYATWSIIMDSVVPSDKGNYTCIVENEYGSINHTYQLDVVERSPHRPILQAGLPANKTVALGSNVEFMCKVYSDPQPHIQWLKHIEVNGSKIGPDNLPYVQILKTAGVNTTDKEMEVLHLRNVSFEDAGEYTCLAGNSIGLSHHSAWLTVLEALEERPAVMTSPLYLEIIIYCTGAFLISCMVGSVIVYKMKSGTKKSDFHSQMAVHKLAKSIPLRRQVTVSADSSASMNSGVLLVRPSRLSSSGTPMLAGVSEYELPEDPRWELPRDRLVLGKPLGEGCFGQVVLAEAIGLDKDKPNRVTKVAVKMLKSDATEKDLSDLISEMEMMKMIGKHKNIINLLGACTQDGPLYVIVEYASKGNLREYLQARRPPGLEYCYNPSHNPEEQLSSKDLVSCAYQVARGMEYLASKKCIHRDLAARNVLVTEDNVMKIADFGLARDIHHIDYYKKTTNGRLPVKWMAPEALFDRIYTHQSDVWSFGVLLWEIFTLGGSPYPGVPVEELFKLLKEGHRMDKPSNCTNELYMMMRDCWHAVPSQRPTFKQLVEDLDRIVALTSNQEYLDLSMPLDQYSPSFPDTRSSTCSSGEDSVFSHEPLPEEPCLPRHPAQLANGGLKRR

Row | Sequence | SH2 binding enrichment (SHP2-C SH2) | SH2 binding enrichment (c-Src SH2) | SH2 binding enrichment (Grb2 SH2) | phosphorylation enrichment (Fyn) | phosphorylation enrichment (FGFR1) | phosphorylation enrichment (EPHB1) | phosphorylation enrichment (c-Src) | phosphorylation enrichment (Fer (mouse)) | phosphorylation enrichment (Hck) | phosphorylation enrichment (c-Abl (mouse)) | phosphorylation enrichment (Fes) | phosphorylation enrichment (EPHB2) | phosphorylation enrichment (AncSZ) | phosphorylation enrichment (Jak2) | phosphorylation enrichment (MERTK) | phosphorylation enrichment (FGFR3)
1 | NDDDVYLSLEE [VAV2_Y142_R143L] | 0.616 | 0.477 | 0.834 | 0.706 | 0.725 | 0.793 | 0.804 | 0.656 | 0.721 | 1.05 | 1.48 | 0.627 | 1.49 | 1.54 | 0.507 | 0.984
2 | EDSEFYRAFEE [CASQ2_Y179_K180R_YF] | 0.682 | 0.751 | 0.963 | 0.538 | 0.473 | 0.582 | 0.494 | 0.489 | 0.513 | 0.771 | 1.07 | 0.525 | 1.15 | 1.02 | 0.449 | 0.848
3 | AKLKDYFIFNK [CCDC42_Y149_YF] | 0.847 | 0.846 | 1.37 | 0.465 | 1.49 | 0.417 | 0.658 | 0.487 | 0.478 | 0.435 | 0.783 | 0.513 | 0.82 | 0.759 | 0.56 | 1
4 | PLRPDYQEPSR [DDR2_Y481] | 0.663 | 0.786 | 1.02 | 0.509 | 0.532 | 0.581 | 0.533 | 0.397 | 0.57 | 0.861 | 1.66 | 0.636 | 1.21 | 1.02 | 0.516 | 0.768
5 | DDKEYYSVHNK [MET_Y1235_Y1230D] | 0.961 | 0.461 | 0.813 | 0.529 | 1.6 | 0.563 | 0.874 | 0.603 | 0.791 | 0.942 | 1.06 | 0.629 | 1.93 | 1.17 | 0.405 | 1.51
6 | EQQRAYLEGTC [HLA-C_Y183_L180Q] | 0.758 | 0.69 | 0.916 | 0.518 | 0.599 | 0.647 | 0.531 | 0.455 | 0.556 | 0.834 | 1.03 | 0.555 | 0.939 | 0.93 | 0.521 | 0.602
7 | LHQSTYQRFDV [SLC7A14_Y693_YF] | 0.635 | 0.897 | 1.03 | 1.83 | 1.14 | 1.45 | 2.69 | 0.955 | 1.77 | 0.838 | 1.32 | 1.17 | 1.31 | 0.652 | 1.19 | 1.18
8 | FRPHLYGTPSR [ADGRE2_Y670_S665F] | 1.65 | 1.77 | 1.98 | 0.546 | 0.747 | 0.481 | 0.572 | 0.945 | 0.948 | 0.718 | 0.842 | 0.458 | 0.682 | 0.611 | 0.513 | 0.511
9 | TESALYGCTIL [MAP3K21_Y724_V728I] | 0.625 | 0.46 | 1 | 6 | 0.5 | 0.68 | 6.06 | 4.72 | 4.18 | 1.59 | 1.62 | 0.989 | 1.17 | 1.65 | 1.57 | 1.19

Second part, led by results:

Row | SH2 binding enrichment (SHP2-C SH2) | SH2 binding enrichment (c-Src SH2) | SH2 binding enrichment (Grb2 SH2) | Sequence | phosphorylation enrichment (Fyn) | phosphorylation enrichment (FGFR1) | phosphorylation enrichment (EPHB1) | phosphorylation enrichment (c-Src) | phosphorylation enrichment (Fer (mouse)) | phosphorylation enrichment (Hck) | phosphorylation enrichment (c-Abl (mouse)) | phosphorylation enrichment (Fes) | phosphorylation enrichment (EPHB2) | phosphorylation enrichment (AncSZ) | phosphorylation enrichment (Jak2) | phosphorylation enrichment (MERTK) | phosphorylation enrichment (FGFR3)
10 | 0.55 | 0.656 | 1.15 | RLPNGYGLAYR [DLK1_Y262_S260N] | 0.961 | 0.663 | 0.416 | 0.423 | 0.504 | 0.571 | 0.413 | 0.737 | 0.528 | 0.706 | 0.509 | 0.453 | 0.573
11 | 0.632 | 0.717 | 1.44 | RVILRYVNPGT [LAMA3_Y791] | 0.591 | 0.538 | 0.838 | 0.448 | 0.606 | 0.561 | 0.663 | 1.13 | 0.666 | 1.06 | 0.947 | 0.385 | 0.883
12 | 0.456 | 0.733 | 0.915 | DSMQSYDLDYP [UNC13B_Y243] | 0.466 | 0.665 | 0.4 | 0.474 | 0.451 | 0.474 | 0.496 | 0.946 | 0.552 | 1.3 | 1.45 | 0.405 | 0.673
13 | 1.27 | 0.752 | 1.01 | VDSLRYIFPKL [EIF2B3_Y92_A87V_YF] | 0.372 | 0.486 | 0.449 | 0.526 | 0.463 | 0.385 | 0.85 | 0.9 | 0.38 | 0.704 | 0.822 | 0.531 | 0.51
14 | 0.631 | 0.546 | 0.911 | PSAELYSFALP [PDGFRB_Y716_N718Y_YF] | 7.74 | 6.2 | 10.7 | 7.32 | 17.4 | 6.93 | 1.51 | 1.28 | 11.8 | 2.77 | 1.03 | 13.2 | 5.36
15 | 0.81 | 0.755 | 0.821 | GFAGKYIAMVM [CYP19A1_Y441_C437Y_YF] | 0.453 | 0.454 | 0.41 | 0.599 | 0.539 | 0.556 | 0.473 | 0.858 | 0.823 | 0.694 | 0.594 | 0.525 | 0.49
16 | 0.432 | 0.473 | 0.85 | QRTMKYTTATG [MCCC1_Y41] | 0.475 | 0.692 | 0.314 | 0.411 | 0.722 | 0.551 | 0.727 | 0.669 | 0.7 | 0.602 | 0.449 | 0.524 | 0.518
